Where two headings read alike, the source gives them in different places.
Experiments:
Assay in all cases: cell-based or functional assay
[1] = molecular target: ACTR variant 1 (wild-type ACTR)
ACTR variant 102 = molecular target: ACTR variant 102
ACTR variant 131 = molecular target: ACTR variant 131
[2] = molecular target: ACTR variant 1 (wild-type ACTR); remark: listed apart in the source
ACTR variant 127 = molecular target: ACTR variant 127
ACTR variant 94 = molecular target: ACTR variant 94
ACTR variant 103 = molecular target: ACTR variant 103
ACTR variant 93 = molecular target: ACTR variant 93
ACTR variant 26 = molecular target: ACTR variant 26

Sequence of ACTR variant 102 (chain, as listed by the source mutant limits assumed): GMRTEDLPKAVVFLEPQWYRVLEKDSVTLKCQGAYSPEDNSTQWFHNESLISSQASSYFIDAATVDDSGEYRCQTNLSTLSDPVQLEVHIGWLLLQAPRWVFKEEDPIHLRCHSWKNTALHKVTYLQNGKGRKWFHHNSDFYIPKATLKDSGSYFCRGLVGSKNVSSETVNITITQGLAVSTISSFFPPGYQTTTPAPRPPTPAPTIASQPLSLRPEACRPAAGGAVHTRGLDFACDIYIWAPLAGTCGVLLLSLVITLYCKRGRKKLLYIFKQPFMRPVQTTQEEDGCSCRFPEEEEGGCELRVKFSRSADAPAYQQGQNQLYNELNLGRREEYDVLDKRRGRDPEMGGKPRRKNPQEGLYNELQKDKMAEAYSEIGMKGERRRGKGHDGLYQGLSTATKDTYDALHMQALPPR
Sequence of ACTR variant 131 (chain, as listed by the source mutant limits assumed): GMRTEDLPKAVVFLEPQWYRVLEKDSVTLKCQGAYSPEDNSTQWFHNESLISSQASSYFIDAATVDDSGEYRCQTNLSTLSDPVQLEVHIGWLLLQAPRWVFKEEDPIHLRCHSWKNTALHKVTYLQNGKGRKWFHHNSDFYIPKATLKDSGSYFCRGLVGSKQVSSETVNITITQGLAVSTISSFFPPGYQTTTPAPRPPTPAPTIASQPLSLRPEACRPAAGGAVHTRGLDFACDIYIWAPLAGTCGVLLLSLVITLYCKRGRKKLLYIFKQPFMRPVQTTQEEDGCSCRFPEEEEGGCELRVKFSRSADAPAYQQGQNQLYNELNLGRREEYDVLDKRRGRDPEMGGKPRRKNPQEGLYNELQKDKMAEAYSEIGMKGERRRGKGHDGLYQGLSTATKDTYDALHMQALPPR

B1: Fc-enhanced anti-CD19 antibody (antibody, V domains shown)
VH: EVQLVESGGGLVKPGGSLKLSCAASGYTFTSYVMHWVRQAPGKGLEWIGYINPYNDGTKYNEKFQGRVTISSDKSISTAYMELSSLRSEDTAMYYCARGTYYYGTRVFDYWGQGTLVTVSS
VL: DIVMTQSPATLSLSPGERATLSCRSSKSLQNVNGNTYLYWFQQKPGQSPQLLIYRMSNLNSGVPDRFSGSGSGTEFTLTISSLEPEDFAVYYCMQHLEYPITFGAGTKLEIKR
Jurkat NFAT luciferase EC50 [1]: 0.26 nM
Jurkat NFAT luciferase EC50 (ACTR variant 102): 2.2 nM
Jurkat NFAT luciferase EC50 (ACTR variant 131): 2 nM

B2: wild-type anti-BCMA antibody (antibody)
heavy: not shown
light: DIVLTQSPPSLAMSLGKRATISCRASESVTILGSHLIHWYQQKPGQPPTLLIQLASNVQTGVPARFSGSGSRTDFTLTIDPVEEDDVAVYYCLQSRTIPRTFGGGTKLEIKRTVAAPSVFIFPPSDEQLKSGTASVVCLLNNFYPREAKVQWKVDNALQSGNSQESVTEQDSKDSTYSLSSTLTLSKADYEKHKVYACEVTHQGLSSPVTKSFNRGEC
Jurkat NFAT luciferase EC50 [2]: < 20 nM

B3: Fc-enhanced anti-BCMA antibody (S239D, I332E) (antibody)
heavy: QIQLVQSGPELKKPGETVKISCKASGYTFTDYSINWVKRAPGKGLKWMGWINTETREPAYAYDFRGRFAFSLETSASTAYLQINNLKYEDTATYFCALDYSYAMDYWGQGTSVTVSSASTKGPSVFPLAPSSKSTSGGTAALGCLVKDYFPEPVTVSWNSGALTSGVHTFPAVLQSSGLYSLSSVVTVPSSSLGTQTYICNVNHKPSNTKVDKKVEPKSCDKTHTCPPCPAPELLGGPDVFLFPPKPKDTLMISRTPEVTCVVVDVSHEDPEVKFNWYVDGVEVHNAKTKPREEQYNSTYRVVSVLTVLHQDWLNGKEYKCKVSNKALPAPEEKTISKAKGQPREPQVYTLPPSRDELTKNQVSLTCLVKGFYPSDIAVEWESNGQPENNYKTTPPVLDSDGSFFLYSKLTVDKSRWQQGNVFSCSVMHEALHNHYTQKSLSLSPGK
light: B2 light
Jurkat NFAT luciferase EC50 [2]: 0.83 nM
Jurkat NFAT luciferase EC50 (ACTR variant 127): < 100 nM
Jurkat NFAT luciferase EC50 (ACTR variant 94): < 100 nM

B4: afucosylated Fc-enhanced anti-BCMA antibody (S239D, I332E) (antibody)
heavy: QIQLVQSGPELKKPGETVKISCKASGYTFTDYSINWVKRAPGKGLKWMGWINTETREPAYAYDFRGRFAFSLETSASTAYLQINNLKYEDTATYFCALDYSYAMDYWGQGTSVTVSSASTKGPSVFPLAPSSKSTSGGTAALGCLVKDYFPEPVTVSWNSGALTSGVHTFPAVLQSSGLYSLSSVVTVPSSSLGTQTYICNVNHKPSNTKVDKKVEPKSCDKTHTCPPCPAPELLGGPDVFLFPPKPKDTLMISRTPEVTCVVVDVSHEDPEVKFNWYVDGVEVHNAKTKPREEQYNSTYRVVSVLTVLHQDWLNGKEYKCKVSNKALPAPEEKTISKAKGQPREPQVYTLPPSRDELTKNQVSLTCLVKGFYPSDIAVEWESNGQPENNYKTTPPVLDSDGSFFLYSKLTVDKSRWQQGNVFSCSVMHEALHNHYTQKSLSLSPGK
light: B2 light
modifications: afucosylated Fc glycan
Jurkat NFAT luciferase EC50 [2]: 0.17 nM
Jurkat NFAT luciferase EC50 (ACTR variant 127): 2.26 nM
Jurkat NFAT luciferase EC50 (ACTR variant 103): 8.44 nM
Jurkat NFAT luciferase EC50 (ACTR variant 93): < 5 nM
Jurkat NFAT luciferase EC50 (ACTR variant 94): 1.12 nM
Jurkat NFAT luciferase EC50 (ACTR variant 26): 4.36 nM

B5: afucosylated anti-BCMA antibody (antibody)
heavy: not shown
light: B2 light
modifications: afucosylated Fc glycan
Jurkat NFAT luciferase EC50 [2]: 1 nM
Jurkat NFAT luciferase EC50 (ACTR variant 93): < 100 nM

Source: patent US20190112349A1 (UNUM THERAPEUTICS, published 2019)
